The results in this text go back to patent US20110144007A1 (IPSEN PHARMA S A S, published 2011).

Substitutions are numbered along the chain they refer to. Non-standard residues stand in square brackets, D forms with d. No end group written: not given here. *: point of attachment. Psu = N-propylsuccinimide on Cys S (Cys alkylated with N-propylmaleimide), CCCN1C(=O)CC(*)C1=O; Myristoyl = CCCCCCCCCCCCCC(=O)*; Ac6c = NC1(C(=O)O)CCCCC1; Nle = CCCC[C@H](N)C(=O)O; Orn = NCCC[C@H](N)C(=O)O; Ac5c = NC1(C(=O)O)CCCC1; Aib = CC(C)(N)C(=O)O

The labels stand for the following.
T1: human recombinant GIP receptor (human, UniProt P48546 22-466)
T1 construct: whole, on cells; Assayed as washed membrane preparations of CHO-K1 clonal cells expressing the receptor; also called hGIP receptor
T1 sequence (looked up): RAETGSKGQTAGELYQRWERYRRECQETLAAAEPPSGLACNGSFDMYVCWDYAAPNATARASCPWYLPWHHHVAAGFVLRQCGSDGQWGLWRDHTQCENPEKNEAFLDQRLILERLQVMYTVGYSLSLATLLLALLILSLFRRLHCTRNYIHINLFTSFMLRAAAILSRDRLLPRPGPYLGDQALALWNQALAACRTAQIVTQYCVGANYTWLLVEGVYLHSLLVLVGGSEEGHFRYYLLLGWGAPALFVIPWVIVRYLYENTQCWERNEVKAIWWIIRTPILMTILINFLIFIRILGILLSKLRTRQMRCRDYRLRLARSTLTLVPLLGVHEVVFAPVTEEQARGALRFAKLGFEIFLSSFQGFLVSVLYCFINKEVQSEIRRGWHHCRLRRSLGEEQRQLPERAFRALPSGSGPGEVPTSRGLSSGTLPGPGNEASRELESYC

B1: (A5c^11, His^31)hGIP(1-31)-NH2 (peptide)
peptide: YAEGTFISDYXIAMDKIHQQDFVNWLLAQKH
modifications: A5c at 11; C-terminal amide
notes: Synthetic truncated analogue of human GIP with His at position 31
B2: (Aib^13, Nle^14, Phe^43)hGIP(1-43)-OH (peptide)
peptide: YAEGTFISDYSI[Aib][Nle]DKIHQQDFVNWLLAQKGKKNDWKHNITQF-OH
notes: Synthetic analogue of human GIP with an added Phe at position 43
B3: (A6c^11, 14, 41)hGIP(1-42)-OH (peptide)
peptide: YAEGTFISDYXIAXDKIHQQDFVNWLLAQKGKKNDWKHNIXQ
modifications: A6c (1-amino-1-cyclohexanecarboxylic acid) at 11, 14 and 41; C-terminal free acid
notes: Synthetic analogue of human GIP
B4: (A5c^11, 41, Cys^33)hGIP(1-42)-NH2 (peptide)
peptide: B3 peptide with X14M, K33C
modifications: A5c at 11 and 41; C-terminal amide
notes: Synthetic analogue of human GIP with Cys at position 33
B5: [A5c^11,41, Cys^32(succinimide-N-20K PEG)]hGIP(1-42)-NH2 (peptide)
peptide: B3 peptide with X14M, K32C
modifications: A5c at 11 and 41; Cys(succinimide-N-20K PEG) at 32; C-terminal amide
notes: Synthetic PEGylated analogue of human GIP
B6: (A5c^11, 41, Cys^32)hGIP(1-42)-NH2 (peptide)
peptide: B3 peptide with X14M, K32C
modifications: A5c at 11 and 41; C-terminal amide
notes: Synthetic analogue of human GIP with Cys at position 32
B7: (A5c^11, 14)hGIP(1-30)-NH2 (peptide)
peptide: YAEGTFISDYXIAXDKIHQQDFVNWLLAQK
modifications: A5c at 11 and 14; C-terminal amide
notes: Synthetic truncated analogue of human GIP
B8: [A5c^11, Lys^43(N-C(O)-(CH2)10-CH3)]hGIP(1-43)-OH (peptide)
peptide: YAEGTFISDYXIAMDKIHQQDFVNWLLAQKGKKNDWKHNITQK
modifications: A5c at 11; Lys(N-C(O)-(CH2)10-CH3) at 43; C-terminal free acid
notes: Synthetic acylated analogue of human GIP
B9: [A5c^11, Orn^32(N-C(O)-(CH2)10-CH3), His^43]hGIP(1-43)-OH (peptide)
peptide: B8 peptide with K32X, K43H
modifications: A5c at 11; Orn(N-C(O)-(CH2)10-CH3) at 32; C-terminal free acid
notes: Synthetic acylated analogue of human GIP with an added His at position 43
B10: (A5c^11, 41, Cys^43)hGIP(1-43)-NH2 (peptide)
peptide: B8 peptide with T41X, K43C
modifications: A5c at 11 and 41; C-terminal amide
notes: Synthetic analogue of human GIP with an added Cys at position 43
B11: [A5c^11, Lys^43(N-C(O)-(CH2)14-CH3)]hGIP(1-43)-OH (peptide)
peptide: B8 peptide
modifications: A5c at 11; Lys(N-C(O)-(CH2)14-CH3) at 43; C-terminal free acid
notes: as for B8
B12: [A5c^11, Orn^33(N-C(O)-(CH2)10-CH3), His^43]hGIP(1-43)-OH (peptide)
peptide: B8 peptide with K33X, K43H
modifications: A5c at 11; Orn(N-C(O)-(CH2)10-CH3) at 33; C-terminal free acid
notes: as for B9
B13: (A5c^11, 14, His^43)hGIP(1-43)-OH (peptide)
peptide: B8 peptide with M14X, K43H
modifications: A5c at 11 and 14; C-terminal free acid
notes: Synthetic analogue of human GIP with an added His at position 43
B14: [A5c^11,41, Cys^43(succinimide-N-20K PEG)]hGIP(1-43)-NH2 (peptide)
peptide: B8 peptide with T41X, K43C
modifications: A5c at 11 and 41; Cys(succinimide-N-20K PEG) at 43; C-terminal amide
notes: as for B5
B15: [A5c^11, Orn^32(N-C(O)-(CH2)14-CH3), His^43]hGIP(1-43)-OH (peptide)
peptide: B8 peptide with K32X, K43H
modifications: A5c at 11; Orn(N-C(O)-(CH2)14-CH3) at 32; C-terminal free acid
notes: as for B8
B16: [A5c^11,41, Cys^43(succinimide-N-30K PEG)]hGIP(1-43)-NH2 (peptide)
peptide: B8 peptide with T41X, K43C
modifications: A5c at 11 and 41; Cys(succinimide-N-30K PEG) at 43; C-terminal amide
notes: as for B5
B17: [A5c^11, Orn^33(N-C(O)-(CH2)14-CH3), His^43]hGIP(1-43)-OH (peptide)
peptide: B8 peptide with K33X, K43H
modifications: A5c at 11; Orn(N-C(O)-(CH2)14-CH3) at 33; C-terminal free acid
notes: as for B8
B18: (Aib^13, Asp^43)hGIP(1-43)-NH2 (peptide)
peptide: B8 peptide with X11S, A13X, K43D
modifications: Aib (alpha-aminoisobutyric acid) at 13; C-terminal amide
notes: Synthetic analogue of human GIP with an added Asp at position 43
B19: (A5c^11, Nle^14, His^43)hGIP(1-43)-OH (peptide)
peptide: B8 peptide with M14X, K43H
modifications: A5c at 11; Nle at 14; C-terminal free acid
notes: as for B13
B20: (A5c^11, Asn^43)hGIP(1-43)-OH (peptide)
peptide: B8 peptide with K43N
modifications: A5c at 11; C-terminal free acid
notes: Synthetic analogue of human GIP with an added Asn at position 43
B21: (A5c^11, Ala^43)hGIP(1-43)-OH (peptide)
peptide: B8 peptide with K43A
modifications: A5c at 11; C-terminal free acid
notes: Synthetic analogue of human GIP with an added Ala at position 43
B22: (Aib^13, Trp^43)hGIP(1-43)-OH (peptide)
peptide: B8 peptide with X11S, A13X, K43W
modifications: Aib at 13; C-terminal free acid
notes: Synthetic analogue of human GIP with an added Trp at position 43
B23: (A5c^11, Thr^43)hGIP(1-43)-OH (peptide)
peptide: B8 peptide with K43T
modifications: A5c at 11; C-terminal free acid
notes: Synthetic analogue of human GIP with an added Thr at position 43
B24: (A5c^11, His^43)hGIP(1-43)-OH (peptide)
peptide: B8 peptide with K43H
modifications: A5c at 11; C-terminal free acid
notes: as for B13
B25: (A5c^11)hGIP(1-30)-NH2 (peptide)
peptide: B7 peptide with X14M
modifications: A5c at 11; C-terminal amide
notes: as for B7

This assay has as its target T1, human recombinant GIP receptor. The experiment in a line: displacement of [125I]GIP from membranes of CHO-K1 cells expressing human recombinant GIP receptor. (In general: Displacement assays read how much labelled ligand stays bound in the presence of the test substance.)
As for B1, the Ki – broadly, a measure of affinity in units of concentration, obtained from inhibition or displacement – came to 0.44 nM. In the case of B2, the Ki is 3.15 nM. YAEGTF[Ac6c]SDYSIAMDKIHQQDFVNWLLAQKGKKN[Orn](Myristoyl)WKHNITQ-OH (Synthetic analogue of human GIP) [[A6c^7, Orn^35(N-C(O)-(CH2)12-CH3)]hGIP(1-42)-OH]: the Ki stood at 10.3 nM.

For YAEGTF[Ac6c]SDYSIAMDKIHQQDFVNWLLAQKGKKNDWKHNITC(Psu)-OH (Synthetic analogue of human GIP) [[A6c^7, Cys(Psu)^42]hGIP(1-42)-OH], the Ki was determined as 30.4 nM.

For the molecule B3, the Ki amounted to 4.72 nM. The value for YAEGTFISDYSIXMDKIHQQDFVNWLLAQKGKKNDWKHNXTQ (Aib at 13; A5c at 40; C-terminal free acid, Synthetic analogue of human GIP) [(Aib^13, A5c^40)hGIP(1-42)-OH] was 5.74 nM; that for YAEGTFISDYXIAXDKIHQQDFVNWLLAQKGKKNDWKHNXTQ (A6c at 11, 14 and 40; C-terminal free acid, Synthetic analogue of human GIP) [(A6c^11, 14, 40)hGIP(1-42)-OH] was 1.3 nM.

Turning to YAEGTFISDYXIAMDKIHQQDFVNWLLAQKGKKNDWKHNXTQ (A5c at 11 and 40; C-terminal free acid, Synthetic analogue of human GIP) [(A5c^11, 40)hGIP(1-42)-OH], the Ki turned out to be 0.62 nM. The figure for YAEGTFISDYXIAMDKIHQQDFVNWLLAQKGKKNDWKHNIXQ (A5c (1-amino-1-cyclopentanecarboxylic acid) at 11 and 41; C-terminal free acid, Synthetic analogue of human GIP) [(A5c^11, 41)hGIP(1-42)-OH] is 0.12 nM; for B4 it is 1.05 nM. Regarding B5, the Ki stood at 0.7 nM. For the molecule B6, the Ki is 0.9 nM. Take YAEGTF[Ac6c]SDYSIAMDKIHQQDFVNWLLAQK[Orn](Myristoyl)KKNDWKHNITQ-OH (Synthetic analogue of human GIP) [[A6c^7, Orn^31(N-C(O)-(CH2)12-CH3)]hGIP(1-42)-OH]: the Ki came out at 18.1 nM. The value for B7 was 0.78 nM; that for YAEGTF[Ac6c]SDYSIAMDKIHQQDFVNWLLAQKGKKNDWKHNI[Ac6c]Q-OH (Synthetic analogue of human GIP) [(A6c^7, 41)hGIP(1-42)-OH] was 8.79 nM. The figure for B8 is 0.83 nM. As to B9, the Ki stood at 5.3 nM. The figure for B10 is 0.51 nM; for B11 it is 1.25 nM; for B12 it is 9.1 nM. The figure for B13 is 0.59 nM; for B14 it is 0.7 nM. In the case of B15, the Ki stood at 41.6 nM. On to B16, for which the Ki was 0.69 nM.

As for B17, the Ki was 26.4 nM.

Turning to B18, the Ki is 0.6 nM. Take YAEGTFISDYXIAMDKIHQQDFVNWLLAQKGKKNDWKHNITQX (A5c at 11; Ado (12-aminododecanoic acid) at 43; C-terminal free acid, Synthetic analogue of human GIP) [(A5c^11, Ado^43)hGIP(1-43)-OH]: the Ki was found to be 31.6 nM. The figure for B19 is 0.72 nM. B20: the Ki was 0.21 nM. As for B21, the Ki was found to be 3.43 nM. As to B22, the Ki is 2.76 nM. The figure for B23 is 3.13 nM; for B24 it is 0.54 nM; for YAEGTF[Ac6c]SDYSIA[Nle]DKIHQQDFVNWLLAQKGKKNDWKHNI[Ac6c]Q-OH (Synthetic analogue of human GIP) [(A6c^7, 41, Nle^14)hGIP(1-42)-OH] it is 26.1 nM. Consider B25, for which the Ki was determined as 0.82 nM. The value for YAEGTFISDYSI[Aib][Nle]DKIHQQDFVNWLLAQKGKKNDWKHN[Ac5c]TQ-OH (Synthetic analogue of human GIP) [(Aib^13, Nle^14, A5c^40)hGIP(1-42)-OH] was 0.23 nM.
